Source: the supplement of paper PMC10567573

B1: SLC19A2 (parent)
chain: FASLRPSEPFLTPYLLGPDKNLTE
B2: TOR1AIP2 (parent)
chain: YKYCDHENAAFKDVALVLTVLLEE

Variants of: B1
Assay: protein stability index of a GFP-peptide fusion (GPS, HEK-293T) (PSI 1-6); higher = more stable
Conditions: c terminus: a fixed tail appended
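Also: lentivirally expressed fusions sorted by FACS into six bins by GFP to DsRed ratio, PSI derived from sequencing read proportions per bin multiplied by bin number.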

Protein stability index of substitutions, site by site:
P18: A 1.65; N 1.48; L 1.8; M 2.06; W 1.76; G 1.51; V 1.41; F 1.54; H 2.53
L22: E 2.03; S 2.1; T 2.25; G 2.04; F 1.62; Y 1.84; P 1.86; N 2.35; W 1.98; V 1.52; I 1.86; D 2.65; M 1.59
Y14: I 2.66; Q 2.69; W 1.46; S 2.21; K 2.42; E 2.76; D 2.49; F 2.38; V 2.22; R 2.87; G 2.18; P 3.25
F1: R 3.75; Q 4.19; E 4.2; A 4.25; V 3.4; K 3.79; W 2.77; G 4.22; H 3.58; M 3.65; N 3.81; T 3.44; I 3.47; D 4.38; S 4.12
T12: Y 2.24; N 2.05; H 1.72; E 3.47; Q 2.3; S 1.93; L 1.67; K 1.88; F 1.74; C 2.1; R 1.74; G 2.35
R5: L 2.1; W 2.43; H 2.17; N 1.68; P 2.36; C 1.99; E 2.58; K 1.88; T 1.98; D 1.73; Y 2.39; F 2.32; V 2.6; I 2.13
P9: R 1.39; L 2.5; K 1.78; F 3.54; W 2.12; N 2.52; T 2.48; A 2.27
L11: G 2.06; S 1.91; P 2.03; T 1.94; I 1.58; Q 2.09; V 1.61; F 2.63; H 2.03
P6: D 2.17; S 1.78; G 1.71; M 1.36; Y 1.83; F 1.58; I 3.26; E 1.65; C 1.99
E24: A 1.89; N 1.38; D 2.01; Q 2.06; S 1.94; V 1.49; P 2.41; R 2.39
S7: F 2.01; A 1.68; Y 1.42; L 1.72; E 1.82; Q 1.76; H 2.03; M 1.24; P 1.87; W 3.01; K 1.98
S3: M 1.74; N 2.78; F 1.93; P 2.43; K 2.78; T 2.83; V 2.65; W 1.54; R 1.71; H 1.87; D 3.05; Y 2.53
L15: M 2.23; F 1.67; T 2.19; W 1.44; C 2.23; I 1.99; A 1.91; G 1.77; P 1.97
T23: D 1.97; F 1.3; C 2.12; M 1.52; Q 3.16; S 1.7; V 1.29; K 2.09; P 2.31; Y 2.27; E 2.02; A 2.24; N 1.84; H 2.8
K20: V 1.84; Y 1.28; I 2.44; S 2.29; L 2.1; Q 2.05; R 1.94; G 2.04; E 1.94; P 1.92; F 1.62
F10: G 2.3; V 2.67; Y 2.04; P 3.15; T 2.15; D 3.28; S 2.16; I 2.23; N 3.22; H 2.61; R 2.94; W 2.88; M 2.35; Q 2.44
L4: Y 1.7; C 1.61; A 1.89; F 1.93; D 2.76; W 3.5; G 2.93; E 2.65; Q 2.15
N21: M 2.39; Y 2.42; W 2.31; K 1.6; T 1.56; P 1.31; L 1.87; C 1.33; D 1.84; G 1.52; A 1.51; Q 1.88; I 2.02; V 2.51; F 1.67; H 1.29
L16: R 2.44; F 2.04; N 2.12; P 1.79; K 2.27; S 2.56; D 2.65; W 2.14; I 1.51; M 1.79; C 2.07; G 2.85; T 1.8; A 2.31
A2: Y 2.05; K 2.84; T 1.97; P 2.6; R 3.08; G 2.74; E 3.63; F 2.19; H 1.63; N 3.64; C 1.51; Q 1.72; D 3.64; V 2.5; S 3.02; I 1.66
D19: T 1.9; H 1.57; K 1.58; V 2.16; G 1.75; L 1.58; R 2.25; W 3.08
E8: S 1.98; L 1.26; A 1.49; Y 1.72; N 2.3; Q 1.69; C 1.68; K 2.1; R 1.59
G17: D 1.59; K 2.23; H 1.75; C 1.05; Q 2.23; R 1.99; F 2.15; V 1.89; W 2.1; Y 1.79; I 4.07; L 2.22; E 1.86; T 1.96
P13: V 2.02; N 1.86; H 1.76; Y 1.58; S 1.99; G 1.59; K 2.56; M 1.46; I 2.91; A 2.58; W 1.88; F 2.1; R 1.68; D 2.28; C 1.84

Variants of: B2
Assay: as above
Conditions: c terminus: a fixed tail appended

Protein stability index of substitutions, site by site:
Y1: L 2.17; T 2.48; D 1.03; P 1.71; R 2.28; K 2.68; H 1.04; C 2.66; N 2.13
H6: G 2.26; C 2.09; V 2.57; P 2; Q 3.06; L 2.49; I 1.05
C4: D 1.05; G 1.35
K2: M 1.96; W 1.98; N 1.99; L 2.81; D 2.03; S 2.14; Y 2.95
N8: R 4.51; S 2.9; V 1.81; M 3.45; Q 2.7; E 1.56
Y3: D 2.78; S 2.41; A 3.02; L 2.89; P 3.07; C 1.51; V 1.83
D5: Y 2.4; R 3.8; L 2.43; S 2.61; N 2.94; P 3.2; E 3.08
E7: Q 2.52; P 3.94; R 2.5; C 4.53; I 3.39; S 2.31; L 2.71; N 3.84
